Assay results taken from US20250122266A1 (TEXAS A AND M UNIVERSITY SYSTEM, published 2025).

How the values were obtained:
[1] = target: T1, NE-tethered mCh-lamin A (UniProt P02545 1-664); assay: nucleoplasmic GFP signal in HeLa cells over dark-light cycles
[2] = target: T1, NE-tethered mCh-lamin A; assay: NE/NP ratio of GFP signal in HeLa cells, before and after light
[3] = target: mCh tethered to early endosome [EE]; assay: cytosol-to-early-endosome translocation in HeLa cells under light
[4] = target: T2, plasma membrane targeting mCh (mCh-CAAX); assay: cytosol-to-plasma-membrane translocation in HeLa cells under light
T2 construct: also called mCh tethered to PM

T1 sequence (P02545 whole entry): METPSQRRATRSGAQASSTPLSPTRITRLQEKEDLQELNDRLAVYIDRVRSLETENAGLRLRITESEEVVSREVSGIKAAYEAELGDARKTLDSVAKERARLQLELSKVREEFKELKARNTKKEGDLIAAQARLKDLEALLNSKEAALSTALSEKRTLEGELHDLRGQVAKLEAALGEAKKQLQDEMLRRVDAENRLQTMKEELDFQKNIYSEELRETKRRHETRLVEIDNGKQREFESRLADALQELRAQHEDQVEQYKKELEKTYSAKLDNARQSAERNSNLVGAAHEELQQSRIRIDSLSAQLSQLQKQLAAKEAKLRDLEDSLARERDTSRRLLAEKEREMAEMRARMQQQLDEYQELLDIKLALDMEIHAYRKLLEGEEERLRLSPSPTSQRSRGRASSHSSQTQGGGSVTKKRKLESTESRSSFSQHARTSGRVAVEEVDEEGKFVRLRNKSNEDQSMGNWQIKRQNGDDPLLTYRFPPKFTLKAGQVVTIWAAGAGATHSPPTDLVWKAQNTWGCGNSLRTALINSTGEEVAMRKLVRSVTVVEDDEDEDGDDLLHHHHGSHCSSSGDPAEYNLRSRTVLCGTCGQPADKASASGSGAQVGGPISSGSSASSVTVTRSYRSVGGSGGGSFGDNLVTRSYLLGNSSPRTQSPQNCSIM

B1: GFP-sunbody (anti-mCherry nanobody LaM8 with LOV2 at S0 and S3) (VHH, not shown: large carriers)
chain: LATTLERIEKNFVITDPRLPDNPIIFASDSFLQLTEYSREEILGRNCRFLQGPETDRATVRKIRDAIDNQTEVTVQLINYTKSGKKFWNLFHLQPMRDQKGDVQYFIGVQLDGTEHVRDAAEREGVMLIKKTAENIDEAAKELKLMAQVQLVESGGGLVQAGGSLRLSCAVSGRPFSEYNLGWFRQAPGKEREFVARIRSSGTTVYTDSVKGRFSASRDNALERIEKNFVITDPRLPDNPIIFASDSFLQLTEYSREEILGRNCRFLQGPETDRATVRKIRDAIDNQTEVTVQLINYTKSGKKFWNLFHLQPMRDQKGDVQYFIGVQLDGTEHVRDAAEREGVMLIKKTAENIDEAAKNMGYLQLNSLEPEDTAVYYCAMSRVDTDSPAFYDYWGQGTQVTVSTPRS
notes: also called S0+S3; anti-mCh GFP-tagged sunbody
[1]
  half-life of light-triggered translocation to the antigen (t½, on): 2.6 s
[2]
  light-induced change in the NE/NP ratio: > 80%

B2: GFP-2xsunbody (dimeric concatemer of sunbody) (VHH, not shown: large carriers)
chain: LATTLERIEKNFVITDPRLPDNPIIFASDSFLQLTEYSREEILGRNCRFLQGPETDRATVRKIRDAIDNQTEVTVQLINYTKSGKKFWNLFHLQPMRDQKGDVQYFIGVQLDGTEHVRDAAEREGVMLIKKTAENIDEAAKELKLMAQVQLVESGGGLVQAGGSLRLSCAVSGRPFSEYNLGWFRQAPGKEREFVARIRSSGTTVYTDSVKGRFSASRDNALERIEKNFVITDPRLPDNPIIFASDSFLQLTEYSREEILGRNCRFLQGPETDRATVRKIRDAIDNQTEVTVQLINYTKSGKKFWNLFHLQPMRDQKGDVQYFIGVQLDGTEHVRDAAEREGVMLIKKTAENIDEAAKNMGYLQLNSLEPEDTAVYYCAMSRVDTDSPAFYDYWGQGTQVTVSTPRSLATTLERIEKNFVITDPRLPDNPIIFASDSFLQLTEYSREEILGRNCRFLQGPETDRATVRKIRDAIDNQTEVTVQLINYTKSGKKFWNLFHLQPMRDQKGDVQYFIGVQLDGTEHVRDAAEREGVMLIKKTAENIDEAAKELKLMAQVQLVESGGGLVQAGGSLRLSCAVSGRPFSEYNLGWFRQAPGKEREFVARIRSSGTTVYTDSVKGRFSASRDNALERIEKNFVITDPRLPDNPIIFASDSFLQLTEYSREEILGRNCRFLQGPETDRATVRKIRDAIDNQTEVTVQLINYTKSGKKFWNLFHLQPMRDQKGDVQYFIGVQLDGTEHVRDAAEREGVMLIKKTAENIDEAAKNMGYLQLNSLEPEDTAVYYCAMSRVDTDSPAFYDYWGQGTQVTVSTPRS
notes: also called tandem sunbody
[3]
  fold increase in the signal-to-background ratio against 1x sunbody: > 2 fold
[4]
  fold increase in the signal-to-background ratio against 1x sunbody: > 2 fold
